B1: HPPDm-2-02: nucleotide sequence encoding Avena sativa HPPD with A111T+F372A+F383W; vector DBN11783 (nucleic acid)
DNA: ATGCCACCTACTCCAGCTACAGCTACTGGTGCTGCTGCTGCTGCCGTTACTCCTGAGCACGCTGCCAGGTCATTCCCCAGGGTGGTTCGCGTGAACCCCAGATCTGATAGGTTCCCAGTTCTGAGCTTCCACCATGTTGAGCTGTGGTGCGCTGATGCTGCTTCTGCTGCTGGCAGGTTCTCTTTCGCTCTTGGTGCTCCACTCGCTGCTAGATCTGATCTGTCTACAGGAAATAGCGCTCATGCCTCACTCCTGCTTCGCTCAGGTGCTTTGGCCTTCCTCTTCACCGCTCCATATGCTCCCCCACCTCAGGAGGCTGCTACTGCTGCTACTACAGCCTCCATTCCAAGCTTCTCAGCTGATGCCGCTAGAACCTTCGCTGCTGCTCATGGACTTGCCGTGAGGTCTGTTGGTGTTCGCGTGGCTGATGCTGCTGAGGCTTTCAGAGTTTCCGTTGCCGGCGGAGCTAGGCCAGCTTTCGCTCCTGCTGATTTGGGACATGGTTTCGGCCTGGCTGAGGTTGAGCTTTACGGTGACGTGGTTCTCCGCTTCGTGTCTTACCCAGATGAGACTGACCTGCCTTTCCTTCCCGGCTTCGAGAGAGTTTCCTCTCCTGGTGCCGTGGATTACGGCCTGACAAGGTTCGACCACGTGGTTGGAAACGTTCCCGAGATGGCTCCAGTGATCGATTACATGAAGGGCTTCCTTGGATTCCATGAGTTCGCCGAGTTCACTGCTGAGGACGTGGGAACCACTGAGTCCGGTTTGAACTCTGTGGTTCTCGCCAACAATTCTGAGGCTGTTTTGCTCCCTCTGAATGAGCCTGTGCATGGAACCAAGAGGAGAAGCCAGATTCAAACTTACCTGGAGTACCACGGTGGCCCTGGAGTTCAGCATATCGCCCTTGCTTCTAATGATGTGTTGCGCACACTCAGAGAGATGCGCGCCAGAACCCCCATGGGAGGTTTCGAGTTCATGGCCCCACCACAGGCTAAGTACTACGAGGGCGTTAGAAGGATTGCTGGAGACGTGTTGAGCGAGGAGCAGATCAAGGAGTGCCAAGAGCTGGGTGTTCTTGTGGATAGGGATGACCAGGGCGTTCTGCTTCAAATTGCCACTAAGCCAGTGGGCGACCGCCCTACATTCTGGCTTGAGATGATTCAAAGAATCGGCTGCATGGAGAAGGATGAGGTTGGACAGGAGTACCAAAAGGGCGGATGCGGTGGCTTCGGAAAGGGTAACTTCAGCGAGTTGTTCAAGTCAATCGAGGACTACGAGAAGAGCCTCGAGGTGAAGCAGTCAGTGGTTGCCCAAAAGTCCTGA
modifications: HPPDm-2-02 Nucleotide Sequence
notes: vector DBN11783
B2: HPPDm-1-02: nucleotide sequence encoding Avena sativa HPPD with A107 deletion+F372A+F383W; vector DBN11780 (nucleic acid)
DNA: ATGCCACCTACTCCAGCTACAGCTACTGGTGCTGCTGCTGCTGCCGTTACTCCTGAGCACGCTGCCAGGTCATTCCCCAGGGTGGTTCGCGTGAACCCCAGATCTGATAGGTTCCCAGTTCTGAGCTTCCACCATGTTGAGCTGTGGTGCGCTGATGCTGCTTCTGCTGCTGGCAGGTTCTCTTTCGCTCTTGGTGCTCCACTCGCTGCTAGATCTGATCTGTCTACAGGAAATAGCGCTCATGCCTCACTCCTGCTTCGCTCAGGTGCTTTGGCCTTCCTCTTCACCGCTCCATATGCTCCCCCACCTCAGGAGGCTACTGCTGCTGCTACAGCCTCCATTCCAAGCTTCTCAGCTGATGCCGCTAGAACCTTCGCTGCTGCTCATGGACTTGCCGTGAGGTCTGTTGGTGTTCGCGTGGCTGATGCTGCTGAGGCTTTCAGAGTTTCCGTTGCCGGCGGAGCTAGGCCAGCTTTCGCTCCTGCTGATTTGGGACATGGTTTCGGCCTGGCTGAGGTTGAGCTTTACGGTGACGTGGTTCTCCGCTTCGTGTCTTACCCAGATGAGACTGACCTGCCTTTCCTTCCCGGCTTCGAGAGAGTTTCCTCTCCTGGTGCCGTGGATTACGGCCTGACAAGGTTCGACCACGTGGTTGGAAACGTTCCCGAGATGGCTCCAGTGATCGATTACATGAAGGGCTTCCTTGGATTCCATGAGTTCGCCGAGTTCACTGCTGAGGACGTGGGAACCACTGAGTCCGGTTTGAACTCTGTGGTTCTCGCCAACAATTCTGAGGCTGTTTTGCTCCCTCTGAATGAGCCTGTGCATGGAACCAAGAGGAGAAGCCAGATTCAAACTTACCTGGAGTACCACGGTGGCCCTGGAGTTCAGCATATCGCCCTTGCTTCTAATGATGTGTTGCGCACACTCAGAGAGATGCGCGCCAGAACCCCCATGGGAGGTTTCGAGTTCATGGCCCCACCACAGGCTAAGTACTACGAGGGCGTTAGAAGGATTGCTGGAGACGTGTTGAGCGAGGAGCAGATCAAGGAGTGCCAAGAGCTGGGTGTTCTTGTGGATAGGGATGACCAGGGCGTTCTGCTTCAAATTGCCACTAAGCCAGTGGGCGACCGCCCTACATTCTGGCTTGAGATGATTCAAAGAATCGGCTGCATGGAGAAGGATGAGGTTGGACAGGAGTACCAAAAGGGCGGATGCGGTGGCTTCGGAAAGGGTAACTTCAGCGAGTTGTTCAAGTCAATCGAGGACTACGAGAAGAGCCTCGAGGTGAAGCAGTCAGTGGTTGCCCAAAAGTCCTGA
modifications: HPPDm-1-02 Nucleotide Sequence
notes: vector DBN11780

Columns and labels:
Format in all cases: in vivo
[1] = tested on: Arabidopsis thaliana T1 plants; assay: Topramezone tolerance of transgenic Arabidopsis thaliana T1 plants (spray, bleached leaf area grade, damage score); conditions: Table 10; for Classification and statistics of the grade of pesticide damage Grade 0: number of plants at grade 0; for Classification and statistics of the grade of pesticide damage Grade 1: number of plants at grade 1; for Classification and statistics of the grade of pesticide damage Grade 2: number of plants at grade 2; for Classification and statistics of the grade of pesticide damage Grade 3: number of plants at grade 3; for Scores: pesticide damage score
How it was run: (§1)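 Damage was assessed by bleaching grade (0 none; 1 <50%; 2 >50%; 3 100% of leaf area) one week after spraying. Sprays on 18-day-old T1 and wild-type plants used field-rate multiples: topramezone 25–200, isoxaflutole 35–280, mesotrione 52.5–420 g ai/ha.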

[2] = tested on: Arabidopsis thaliana T1 plants; assay: Isoxaflutole tolerance of transgenic Arabidopsis thaliana T1 plants (spray, bleached leaf area grade, damage score); conditions: Table 11; for Classification and statistics of the grade of pesticide damage Grade 0: number of plants at grade 0; for Classification and statistics of the grade of pesticide damage Grade 1: number of plants at grade 1; for Classification and statistics of the grade of pesticide damage Grade 2: number of plants at grade 2; for Classification and statistics of the grade of pesticide damage Grade 3: number of plants at grade 3; for Scores: pesticide damage score;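 as to Scores: Weighted damage index from 0 to 100 where higher means more damage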
How it was run: as §1

[3] = tested on: Arabidopsis thaliana T1 plants; assay: Mesotrione tolerance of transgenic Arabidopsis thaliana T1 plants (spray, bleached leaf area grade, damage score); design: Scores: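 damage score 0-100 computed as Σ(N×S)/(T×M)×100 over grades 0-3 with higher meaning more damage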; conditions: Table 12; for Classification and statistics of the grade of pesticide damage Grade 0: number of plants at grade 0; for Classification and statistics of the grade of pesticide damage Grade 1: number of plants at grade 1; for Classification and statistics of the grade of pesticide damage Grade 2: number of plants at grade 2; for Classification and statistics of the grade of pesticide damage Grade 3: number of plants at grade 3; for Scores: pesticide damage score
How it was run: as §1

Molecule	Resistance evaluation ([1]; topramezone 100 g ai/ha (4×))	Classification and statistics of the grade of pesticide damage Grade 0 ([1]; topramezone 100 g ai/ha (4×))	Classification and statistics of the grade of pesticide damage Grade 1 ([1]; topramezone 100 g ai/ha (4×))	Classification and statistics of the grade of pesticide damage Grade 2 ([1]; topramezone 100 g ai/ha (4×))	Classification and statistics of the grade of pesticide damage Grade 3 ([1]; topramezone 100 g ai/ha (4×))	Scores ([1]; topramezone 100 g ai/ha (4×))	Resistance evaluation ([1]; topramezone 200 g ai/ha (8×))	Classification and statistics of the grade of pesticide damage Grade 0 ([1]; topramezone 200 g ai/ha (8×))	Classification and statistics of the grade of pesticide damage Grade 1 ([1]; topramezone 200 g ai/ha (8×))	Classification and statistics of the grade of pesticide damage Grade 2 ([1]; topramezone 200 g ai/ha (8×))	Classification and statistics of the grade of pesticide damage Grade 3 ([1]; topramezone 200 g ai/ha (8×))	Scores ([1]; topramezone 200 g ai/ha (8×))	Resistance evaluation ([2]; isoxaflutole 140 g ai/ha (2×))	Classification and statistics of the grade of pesticide damage Grade 0 ([2]; isoxaflutole 140 g ai/ha (2×))	Classification and statistics of the grade of pesticide damage Grade 1 ([2]; isoxaflutole 140 g ai/ha (2×))	Classification and statistics of the grade of pesticide damage Grade 2 ([2]; isoxaflutole 140 g ai/ha (2×))	Classification and statistics of the grade of pesticide damage Grade 3 ([2]; isoxaflutole 140 g ai/ha (2×))	Scores ([2]; isoxaflutole 140 g ai/ha (2×))	Resistance evaluation ([2]; isoxaflutole 280 g ai/ha (4×))	Classification and statistics of the grade of pesticide damage Grade 0 ([2]; isoxaflutole 280 g ai/ha (4×))	other results
B1	Highly resistant	16	0	0	0	0	Highly resistant	16	0	0	0	0	Highly resistant	16	0	0	0	0	Highly resistant	12	Classification and statistics of the grade of pesticide damage Grade 1 ([2]; isoxaflutole 280 g ai/ha (4×)): 3; Classification and statistics of the grade of pesticide damage Grade 2 ([2]; isoxaflutole 280 g ai/ha (4×)): 1; Classification and statistics of the grade of pesticide damage Grade 3 ([2]; isoxaflutole 280 g ai/ha (4×)): 0; Scores ([2]; isoxaflutole 280 g ai/ha (4×)): 10; Resistance evaluation ([3]; mesotrione 210 g ai/ha (2×)): Highly resistant; Classification and statistics of the grade of pesticide damage Grade 0 ([3]; mesotrione 210 g ai/ha (2×)): 16; Classification and statistics of the grade of pesticide damage Grade 1 ([3]; mesotrione 210 g ai/ha (2×)): 0; Classification and statistics of the grade of pesticide damage Grade 2 ([3]; mesotrione 210 g ai/ha (2×)): 0; Classification and statistics of the grade of pesticide damage Grade 3 ([3]; mesotrione 210 g ai/ha (2×)): 0; Scores ([3]; mesotrione 210 g ai/ha (2×)): 0; Resistance evaluation ([3]; mesotrione 420 g ai/ha (4×)): Highly resistant; Classification and statistics of the grade of pesticide damage Grade 0 ([3]; mesotrione 420 g ai/ha (4×)): 14; Classification and statistics of the grade of pesticide damage Grade 1 ([3]; mesotrione 420 g ai/ha (4×)): 2; Classification and statistics of the grade of pesticide damage Grade 2 ([3]; mesotrione 420 g ai/ha (4×)): 0; Classification and statistics of the grade of pesticide damage Grade 3 ([3]; mesotrione 420 g ai/ha (4×)): 0; Scores ([3]; mesotrione 420 g ai/ha (4×)): 4
B2	Highly resistant	16	0	0	0	0	Highly resistant	16	0	0	0	0	Highly resistant	16	0	0	0	0	Highly resistant	12	Classification and statistics of the grade of pesticide damage Grade 1 ([2]; isoxaflutole 280 g ai/ha (4×)): 4; Classification and statistics of the grade of pesticide damage Grade 2 ([2]; isoxaflutole 280 g ai/ha (4×)): 0; Classification and statistics of the grade of pesticide damage Grade 3 ([2]; isoxaflutole 280 g ai/ha (4×)): 0; Scores ([2]; isoxaflutole 280 g ai/ha (4×)): 8; Resistance evaluation ([3]; mesotrione 210 g ai/ha (2×)): Highly resistant; Classification and statistics of the grade of pesticide damage Grade 0 ([3]; mesotrione 210 g ai/ha (2×)): 16; Classification and statistics of the grade of pesticide damage Grade 1 ([3]; mesotrione 210 g ai/ha (2×)): 0; Classification and statistics of the grade of pesticide damage Grade 2 ([3]; mesotrione 210 g ai/ha (2×)): 0; Classification and statistics of the grade of pesticide damage Grade 3 ([3]; mesotrione 210 g ai/ha (2×)): 0; Scores ([3]; mesotrione 210 g ai/ha (2×)): 0; Resistance evaluation ([3]; mesotrione 420 g ai/ha (4×)): Highly resistant; Classification and statistics of the grade of pesticide damage Grade 0 ([3]; mesotrione 420 g ai/ha (4×)): 15; Classification and statistics of the grade of pesticide damage Grade 1 ([3]; mesotrione 420 g ai/ha (4×)): 1; Classification and statistics of the grade of pesticide damage Grade 2 ([3]; mesotrione 420 g ai/ha (4×)): 0; Classification and statistics of the grade of pesticide damage Grade 3 ([3]; mesotrione 420 g ai/ha (4×)): 0; Scores ([3]; mesotrione 420 g ai/ha (4×)): 2
